Source: patent publication KR20200098329A (dated 2020)
Changes are numbered by the printed parent chain.

B1: 4C2 항체 (antibody, V domains shown)
VH: QVQLQQPGAELVRPGASVTLSCKASGYTFTDYEMHWVKQTPVHGLEWIGIIDPETGATAYNQKFKGKATLTADKSSSTAYMELRSLTSEDSAVYYCTRGKFYYSGRDYAMDYWGQGTSVTVSS
VL: DVLMTQTPLSLPVSLGDQASISCRSSQSIVHSNGNTYLEWYLQKPGQSPKLLFYKVSNRFSGVPDRFSGSGSGTDFTLKISRVEAEDLGVYFCFQGSQVPPTFGGGTKLEIK
notes: Mouse monoclonal antibody from a hybridoma; also called 항-BAG2 항체 4C2
B2: 8C4 항체 (antibody, V domains shown)
VH: B1 VH with G56A, A57G
VL: B1 VL
notes: Mouse monoclonal antibody from a hybridoma; also called 항-BAG2 항체 8C4
B3: 3G8 항체 (antibody, V domains shown)
VH: QIQLVQSGPELKKPGETVKISCKASGYSFTKYGMNWVKQAPGKDIKWMGWINTNTGEATYGEEVKGRFAFSLETSASTAYLQINNLKNEDTATYFCARLGLRYLDYWGQGTTLTVSS
VL: DIVMTQSPASLVVSLGQRATISCRASKSVSTSDYSYMHWYQQKPGQPPKVLIYLASNLESGVPARFSGSGSGTDFTLNIHPVEEEDAATYYCQHNRELPPTFGAGTKLELK
notes: Mouse monoclonal antibody from a hybridoma; Biotinylated when used as detecting antibody in the sandwich ELISA; also called 항-BAG2 항체 3G8
B4: 2A11 항체 (antibody, V domains shown)
VH: B1 VH with A57G
VL: B1 VL with F53I
notes: Mouse monoclonal antibody from a hybridoma; also called 항-BAG2 항체 2A11
B5: 3F12 항체 (antibody, V domains shown)
VH: QVQLQESGPDLVKPSQSLSLTCTVTGYSITSGYSWHWIRQFPGNKLEWMGYIYYRGSTNYNPSLKSRISITRDTSKNQFFLLLKSVTTEDTATYYCAREAYWGQGTLVTVSA
VL: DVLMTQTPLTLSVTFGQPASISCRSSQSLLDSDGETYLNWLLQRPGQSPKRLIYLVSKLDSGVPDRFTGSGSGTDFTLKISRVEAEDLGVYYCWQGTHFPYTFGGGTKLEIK
notes: Mouse monoclonal antibody from a hybridoma; Biotinylated when used as detecting antibody in the sandwich ELISA; also called 항-BAG2 항체 3F12

Molecular target: T1, 인간 BAG2 단백질 (human, UniProt O95816 2-211, limits assumed)
T1 construct: also called BAG2 폴리펩티드; human BAG2
Assay: immunoblot on MDA-MB-231 cell lysate

T1 sequence (O95816 2-211 limits assumed): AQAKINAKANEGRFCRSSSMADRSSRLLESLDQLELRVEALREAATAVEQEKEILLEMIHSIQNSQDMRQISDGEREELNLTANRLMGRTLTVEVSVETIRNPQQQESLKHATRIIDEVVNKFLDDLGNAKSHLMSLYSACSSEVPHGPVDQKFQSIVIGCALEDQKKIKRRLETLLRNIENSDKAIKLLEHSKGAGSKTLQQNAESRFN

binding result	Binder
binds	B1
binds	B2
binds	B3

Molecular target: T1, 인간 BAG2 단백질
Assay: immunoblot screening of hybridomas

binding result	Binder
binds	B4
binds	B5

Molecular target: T2, GST-Bag Full (GST와 융합된 전장 BAG2 폴리펩티드) (human, UniProt O95816 1-211)
T2 construct: Expressed in HEK293T cells, detected in lysate at about 50 kDa by immunoblot; not shown: GST tag, about 26 kDa, of the pcDNA3.1+/GST vector (NovoPro Bioscience)
Assay: immunoblot on lysate of HEK293T cells with the GST-Bag Full vector, signal at about 50 kDa

T2 sequence (O95816 whole entry): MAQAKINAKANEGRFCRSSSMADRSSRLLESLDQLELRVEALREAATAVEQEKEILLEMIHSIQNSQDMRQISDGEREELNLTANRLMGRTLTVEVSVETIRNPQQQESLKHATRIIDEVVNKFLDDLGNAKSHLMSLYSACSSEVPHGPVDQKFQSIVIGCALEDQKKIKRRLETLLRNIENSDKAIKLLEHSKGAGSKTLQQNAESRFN

binding result	Binder
binds	B4
binds	B1
binds	B2
binds	B3
binds	B5
